# Source: patent US20240382610A1 (TALLAC THERAPEUTICS, published 2024)
# T1: Human nectin-4 ECD-6His (TNT-175) (human, UniProt Q96NY8 32-349)
# T1 construct: the entry holds the extracellular domain with the C-terminal 6His tag
# T1 sequence: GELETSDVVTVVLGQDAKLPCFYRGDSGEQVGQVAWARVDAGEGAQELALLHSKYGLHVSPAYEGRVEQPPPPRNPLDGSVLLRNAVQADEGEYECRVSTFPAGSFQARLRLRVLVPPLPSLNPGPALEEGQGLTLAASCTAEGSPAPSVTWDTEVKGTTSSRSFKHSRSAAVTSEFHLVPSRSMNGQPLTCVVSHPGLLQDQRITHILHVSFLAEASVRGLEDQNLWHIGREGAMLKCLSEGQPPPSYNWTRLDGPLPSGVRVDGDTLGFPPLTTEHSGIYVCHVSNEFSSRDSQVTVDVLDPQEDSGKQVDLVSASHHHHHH
# T2: human nectin-4 on cells (human, UniProt Q96NY8 32-510)
# T2 construct: whole, on cells; also called PVRL4
# T2 sequence (looked up): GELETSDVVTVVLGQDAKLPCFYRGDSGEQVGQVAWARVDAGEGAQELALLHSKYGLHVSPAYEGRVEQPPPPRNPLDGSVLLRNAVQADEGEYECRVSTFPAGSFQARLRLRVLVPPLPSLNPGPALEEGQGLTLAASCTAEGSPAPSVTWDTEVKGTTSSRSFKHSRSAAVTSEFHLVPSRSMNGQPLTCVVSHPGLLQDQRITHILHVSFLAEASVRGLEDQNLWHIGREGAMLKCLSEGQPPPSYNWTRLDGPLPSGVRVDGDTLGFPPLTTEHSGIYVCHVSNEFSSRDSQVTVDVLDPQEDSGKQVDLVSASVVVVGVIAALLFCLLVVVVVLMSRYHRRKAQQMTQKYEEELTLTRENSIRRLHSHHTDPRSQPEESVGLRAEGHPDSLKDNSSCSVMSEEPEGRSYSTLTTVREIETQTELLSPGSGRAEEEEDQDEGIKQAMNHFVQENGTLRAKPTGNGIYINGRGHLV
# What was measured:
# [1] = biological target: T1, Human nectin-4 ECD-6His (TNT-175); assay: competition ELISA; nectin-4 ECD premixed with TNT207, captured by the coat antibody; % of signal without premix antibody
# Outline: (§1)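 Anti-mouse IgG coat 1 mg/mL, 4° C o/n; nectin-4/antibody premix 1 h; anti-6×His HRP 1:4,000, 1 h RT; ABTS 20 min. Readout O.D. minus background, % of nectin-4-alone signal at lowest dilution.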
# [2] = biological target: T1, Human nectin-4 ECD-6His (TNT-175); assay: competition ELISA; nectin-4 ECD premixed with TNT206, captured by the coat antibody; % of signal without premix antibody
# Outline: as §1
# [3] = biological target: T1, Human nectin-4 ECD-6His (TNT-175); assay: competition ELISA; nectin-4 ECD premixed with TNT209, captured by the coat antibody; % of signal without premix antibody
# Outline: as §1
# [4] = biological target: T1, Human nectin-4 ECD-6His (TNT-175); assay: competition ELISA; nectin-4 ECD premixed with TNT202, captured by the coat antibody; % of signal without premix antibody
# Outline: as §1
# human nectin-4 on cells = biological target: T2, human nectin-4 on cells; assay: flow cytometry MFI, MNK74 (nectin-4 positive) over AGS (negative)
# [5] = biological target: T1, Human nectin-4 ECD-6His (TNT-175); assay: competition ELISA; nectin-4 ECD premixed with TNT205, captured by the coat antibody; % of signal without premix antibody
# Outline: as §1
# [6] = biological target: T1, Human nectin-4 ECD-6His (TNT-175); assay: competition ELISA; nectin-4 ECD premixed with TNT212, captured by the coat antibody; % of signal without premix antibody
# Outline: as §1
# [7] = biological target: T1, Human nectin-4 ECD-6His (TNT-175); assay: SPR ProteOn, mAb on protein A
# Method: Initial testing of binding of nectin-4 antibodies to nectin-4. […] Biotinylated protein A (15 μg/mL) was immobilized to the surface of an NLC chip. 30 nM of purified mAb supernatant was diluted in PBS-T and captured over the protein A surface. Serial dilutions of human nectin-4 were injected over the mAb-coated chips, and binding kinetics were determined. Chips were regenerated using 4:1 v/v of IgG elution butter/4M NaCl.
# [8] = biological target: T1, Human nectin-4 ECD-6His (TNT-175); assay: competition ELISA; nectin-4 ECD premixed with TNT204, captured by the coat antibody; % of signal without premix antibody
# Outline: as §1
# [9] = biological target: T1, Human nectin-4 ECD-6His (TNT-175); assay: competition ELISA; nectin-4 ECD premixed with TNT203, captured by the coat antibody; % of signal without premix antibody
# Outline: as §1
# [10] = biological target: T1, Human nectin-4 ECD-6His (TNT-175); assay: competition ELISA; nectin-4 ECD premixed with TNT210, captured by the coat antibody; % of signal without premix antibody
# Outline: as §1
# [11] = biological target: T1, Human nectin-4 ECD-6His (TNT-175); assay: competition ELISA; nectin-4 ECD premixed with TNT211, captured by the coat antibody; % of signal without premix antibody
# Outline: as §1
# [12] = biological target: T1, Human nectin-4 ECD-6His (TNT-175); assay: competition ELISA; nectin-4 ECD premixed with TNT201, captured by the coat antibody; % of signal without premix antibody
# Outline: as §1
# [13] = biological target: T1, Human nectin-4 ECD-6His (TNT-175); assay: competition ELISA; nectin-4 ECD premixed with TNT208, captured by the coat antibody; % of signal without premix antibody
# Outline: as §1
Binder,% of Positive [1] [%],% of Positive [2] [%],% of Positive [3] [%],% of Positive [4] [%],Fold-change of binding to MNK74 compared to control AGS (human nectin-4 on cells) [fold],% of Positive [5] [%],% of Positive [6] [%],Kd [7] [nM],koff [7] [s⁻¹],kon [7] [M⁻¹ s⁻¹],% of Positive [8] [%],% of Positive [9] [%],% of Positive [10] [%],% of Positive [11] [%],% of Positive [12] [%],% of Positive [13] [%]
"TNT-197 (antibody, mouse IgG2a, kappa) heavy: EVQLVQSGGGVVQPGRSLRLSCAASGFTFSSYAMHWVRQAPGKGLEWVAVISYDGSNKYYADSVKGRFTISRDNSKNTLYLQMNSLRAEDTAVYYCARATLQLWLPLFDYWGQGTLVTVSSAKTTAPSVYPLAPVCGDTTGSSVTLGCLVKGYFPEPVTLTWNSGSLSSGVHTFPAVLQSDLYTLSSSVTVTSSTWPSQSITCNVAHPASSTKVDKKIEPRGPTIKPCPPCKCPAPNLLGGPSVFIFPPKIKDVLMISLSPIVTCVVVDVSEDDPDVQISWFVNNVEVHTAQTQTHREDYNSTLRVVSALPIQHQDWMSGKEFKCKVNNKDLPAPIERTISKPKGSVRAPQVYVLPPPEEEMTKKQVTLTCMVTDFMPEDIYVEWTNNGKTELNYKNTEPVLDSDGSYFMYSKLRVEKKNWVERNSYSCSVVHEGLHNHHTTKSFSRTPGRPQGFGPP light: not shown",3.4,14.3,37.2,7.8,4.8,57.1,2.7,4.28,0.00334,780000,6.7,39.7,2.6,32.4,1.7,5.8
"TNT-198 (antibody, mouse IgG2a, kappa) heavy: EVQLVQSGAEVKKPGSSVKVSCKASGGTFSSYAISWVRQAPGQGLEWMGWINPNSGGTNYAQKFQGRVTMTRDTSTSTAYMELSSLRSEDTAVYYCATGYYGDLYYFDYWGQGTLVTVSSAKTTAPSVYPLAPVCGDTTGSSVTLGCLVKGYFPEPVTLTWNSGSLSSGVHTFPAVLQSDLYTLSSSVTVTSSTWPSQSITCNVAHPASSTKVDKKIEPRGPTIKPCPPCKCPAPNLLGGPSVFIFPPKIKDVLMISLSPIVTCVVVDVSEDDPDVQISWFVNNVEVHTAQTQTHREDYNSTLRVVSALPIQHQDWMSGKEFKCKVNNKDLPAPIERTISKPKGSVRAPQVYVLPPPEEEMTKKQVTLTCMVTDFMPEDIYVEWTNNGKTELNYKNTEPVLDSDGSYFMYSKLRVEKKNWVERNSYSCSVVHEGLHNHHTTKSFSRTPGRPQGFGPP light: DIVMTQSPSSLSASVGDRVTITCRASQGISNYLAWYQQKPGKVPKLLIYAASTLQSGVPSRFSGSGSGTEFTLAISSLQPEDLATYYCQQLNSHPITFGQGTRLEIKRADAAPTVSIFPPSSEQLTSGGASVVCFLNNFYPKDINVKWKIDGSERQNGVLNSWTDQDSKDSTYSMSSTLTLTKDEYERHNSYTCEATHKTSTSPIVKSFNRNEC",1,5.4,26,2.5,5.9,56.9,1.9,20.2,0.00138,68400,2.2,29.8,0.8,19.5,0.9,2.1
"TNT-188 (antibody, mouse IgG2a, kappa) heavy: EVQLVQSGAEVKKPGSSVKVSCKASGYTFTGYYMHWVRQAPGQGLEWMGWINPNSGGTNYAQKFQGRVTMTRDTSISTAYMELRSLRSDDTAVYYCARGSALHFFGVFDYWGQGTLVTVSSAKTTAPSVYPLAPVCGDTTGSSVTLGCLVKGYFPEPVTLTWNSGSLSSGVHTFPAVLQSDLYTLSSSVTVTSSTWPSQSITCNVAHPASSTKVDKKIEPRGPTIKPCPPCKCPAPNLLGGPSVFIFPPKIKDVLMISLSPIVTCVVVDVSEDDPDVQISWFVNNVEVHTAQTQTHREDYNSTLRVVSALPIQHQDWMSGKEFKCKVNNKDLPAPIERTISKPKGSVRAPQVYVLPPPEEEMTKKQVTLTCMVTDFMPEDIYVEWTNNGKTELNYKNTEPVLDSDGSYFMYSKLRVEKKNWVERNSYSCSVVHEGLHNHHTTKSFSRTPGRPQGFGPP light: not shown",7.5,20,43.7,12.8,4.3,52.5,10.1,7.03,0.00153,217000,9.2,40,8,35.4,2.7,12.7
"TNT-189 (antibody, mouse IgG2a, kappa) heavy: EVQLVQSGAEVKKPGSSVKVSCKASGGTFSSYAISWVRQAPGQGLEWMGGIIPIFGTANYAQKFQGRVTITADESTSTAYMELSSLRSEDTAVYYCARGYSSSWYEPYYFDYWGQGTLVTVSSAKTTAPSVYPLAPVCGDTTGSSVTLGCLVKGYFPEPVTLTWNSGSLSSGVHTFPAVLQSDLYTLSSSVTVTSSTWPSQSITCNVAHPASSTKVDKKIEPRGPTIKPCPPCKCPAPNLLGGPSVFIFPPKIKDVLMISLSPIVTCVVVDVSEDDPDVQISWFVNNVEVHTAQTQTHREDYNSTLRVVSALPIQHQDWMSGKEFKCKVNNKDLPAPIERTISKPKGSVRAPQVYVLPPPEEEMTKKQVTLTCMVTDFMPEDIYVEWTNNGKTELNYKNTEPVLDSDGSYFMYSKLRVEKKNWVERNSYSCSVVHEGLHNHHTTKSFSRTPGRPQGFGPP light: DIQLTQSPSSLSASVGDRVTITCRASQGISNYLAWYQQKPGKAPKLLIYAASTLQSGVPSRFSGSGSGTDFTLTISSLQPEDFATYYCQQSYSTPYTFGQGTKLEIKRADAAPTVSIFPPSSEQLTSGGASVVCFLNNFYPKDINVKWKIDGSERQNGVLNSWTDQDSKDSTYSMSSTLTLTKDEYERHNSYTCEATHKTSTSPIVKSFNRNEC",2.4,10.5,26.7,4.3,5,44.4,3.1,5.09,0.00423,832000,3.9,29.3,2.7,27,1,4.3
